The chains are these.
B1: RIPK4 (parent)
chain: VSVNAQTLDGRTPLHLAAQRGHYR
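Also: lentivirally expressed fusions sorted by FACS into six bins by GFP to DsRed ratio, PSI derived from sequencing read proportions per bin multiplied by bin number.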

In the series the parent is B1. Put plainly: protein stability index of a GFP-peptide fusion (GPS, HEK-293T) (PSI 1-6); higher = more stable. Conditions: c terminus: a fixed tail appended.
For the variant VSVNKQTLDGRTPLHLAAQRGHYR [A5K], the protein stability index amounted to 3.69.
In the case of VSVNFQTLDGRTPLHLAAQRGHYR [A5F] it was 2.61.
VSVNEQTLDGRTPLHLAAQRGHYR [A5E]: the protein stability index was 3.73.
As to VSVNPQTLDGRTPLHLAAQRGHYR [A5P], the protein stability index came to 3.12.
Take VSVNQQTLDGRTPLHLAAQRGHYR [A5Q]: the protein stability index was 3.13.
Take VSVNNQTLDGRTPLHLAAQRGHYR [A5N]: the protein stability index amounted to 3.53.
As for VSVNHQTLDGRTPLHLAAQRGHYR [A5H], the protein stability index turned out to be 3.36.
Regarding VSVNMQTLDGRTPLHLAAQRGHYR [A5M], the protein stability index stood at 2.77.
The figure for VSVNRQTLDGRTPLHLAAQRGHYR [A5R] is 2.94; for VSVNVQTLDGRTPLHLAAQRGHYR [A5V] it is 2.64; for VSVNCQTLDGRTPLHLAAQRGHYR [A5C] it is 3.88.
For the variant VSVNYQTLDGRTPLHLAAQRGHYR [A5Y], the protein stability index is 3.1.
The figure for VSVNTQTLDGRTPLHLAAQRGHYR [A5T] is 3.52; for VSVNDQTLDGRTPLHLAAQRGHYR [A5D] it is 4.28.
Consider VSVNSQTLDGRTPLHLAAQRGHYR [A5S], for which the protein stability index turned out to be 3.37.
VSYNAQTLDGRTPLHLAAQRGHYR [V3Y]: the protein stability index amounted to 2.75.
On to VSTNAQTLDGRTPLHLAAQRGHYR [V3T], for which the protein stability index worked out at 3.53.
Regarding VSGNAQTLDGRTPLHLAAQRGHYR [V3G], the protein stability index is 3.9.
Turning to VSINAQTLDGRTPLHLAAQRGHYR [V3I], the protein stability index turned out to be 2.67.
Regarding VSPNAQTLDGRTPLHLAAQRGHYR [V3P], the protein stability index turned out to be 3.83.
For the variant VSANAQTLDGRTPLHLAAQRGHYR [V3A], the protein stability index is 3.85.
Consider VSLNAQTLDGRTPLHLAAQRGHYR [V3L], for which the protein stability index amounted to 3.35.
Consider VSCNAQTLDGRTPLHLAAQRGHYR [V3C], for which the protein stability index was determined as 3.12.
For the variant VSDNAQTLDGRTPLHLAAQRGHYR [V3D], the protein stability index came out at 4.13.
Regarding VSRNAQTLDGRTPLHLAAQRGHYR [V3R], the protein stability index is 4.33.
With VSENAQTLDGRTPLHLAAQRGHYR [V3E], the protein stability index amounted to 4.86.
On to VSQNAQTLDGRTPLHLAAQRGHYR [V3Q], for which the protein stability index came out at 4.22.
On to VSMNAQTLDGRTPLHLAAQRGHYR [V3M], for which the protein stability index amounted to 3.73.
On to VSSNAQTLDGRTPLHLAAQRGHYR [V3S], for which the protein stability index is 3.97.
The figure for VSWNAQTLDGRTPLHLAAQRGHYR [V3W] is 2.69.
In the case of VSKNAQTLDGRTPLHLAAQRGHYR [V3K], the protein stability index is 3.6.
Regarding VSHNAQTLDGRTPLHLAAQRGHYR [V3H], the protein stability index worked out at 4.67.
As to VSFNAQTLDGRTPLHLAAQRGHYR [V3F], the protein stability index worked out at 2.96.
As to VSNNAQTLDGRTPLHLAAQRGHYR [V3N], the protein stability index is 4.49.
Turning to VSVNAQILDGRTPLHLAAQRGHYR [T7I], the protein stability index was determined as 2.63.
The figure for VSVNAQRLDGRTPLHLAAQRGHYR [T7R] is 3.32; for VSVNAQHLDGRTPLHLAAQRGHYR [T7H] it is 3.12.
As for VSVNAQELDGRTPLHLAAQRGHYR [T7E], the protein stability index amounted to 3.94.
The figure for VSVNAQCLDGRTPLHLAAQRGHYR [T7C] is 2.8; for VSVNAQYLDGRTPLHLAAQRGHYR [T7Y] it is 2.97.
In the case of VSVNAQSLDGRTPLHLAAQRGHYR [T7S], the protein stability index is 3.29.
The figure for VSVNAQGLDGRTPLHLAAQRGHYR [T7G] is 3.35; for VSVNAQKLDGRTPLHLAAQRGHYR [T7K] it is 3.36.
Consider VSVNAQVLDGRTPLHLAAQRGHYR [T7V], for which the protein stability index turned out to be 3.23.
In the case of VSVNAQALDGRTPLHLAAQRGHYR [T7A] it was 3.34; in that of VSVNAQNLDGRTPLHLAAQRGHYR [T7N], 3.64.
Regarding VSVNAQFLDGRTPLHLAAQRGHYR [T7F], the protein stability index amounted to 2.11.
For the variant VSVNAQWLDGRTPLHLAAQRGHYR [T7W], the protein stability index amounted to 2.32.
VSVNAQDLDGRTPLHLAAQRGHYR [T7D]: the protein stability index came out at 3.77.
With VSVNAQLLDGRTPLHLAAQRGHYR [T7L], the protein stability index is 3.2.
As to VSVNAQMLDGRTPLHLAAQRGHYR [T7M], the protein stability index turned out to be 2.98.
In the case of VSVNAQPLDGRTPLHLAAQRGHYR [T7P] it was 3.36; in that of VSVNAQQLDGRTPLHLAAQRGHYR [T7Q], 4.04.
With VSVNAQTLDGMTPLHLAAQRGHYR [R11M], the protein stability index was found to be 2.77.
On to VSVNAQTLDGQTPLHLAAQRGHYR [R11Q], for which the protein stability index was 3.62.
In the case of VSVNAQTLDGFTPLHLAAQRGHYR [R11F], the protein stability index was found to be 2.65.
Regarding VSVNAQTLDGETPLHLAAQRGHYR [R11E], the protein stability index was 3.78.
With VSVNAQTLDGNTPLHLAAQRGHYR [R11N], the protein stability index is 3.42.
As to VSVNAQTLDGVTPLHLAAQRGHYR [R11V], the protein stability index was 2.97.
The figure for VSVNAQTLDGSTPLHLAAQRGHYR [R11S] is 3.12; for VSVNAQTLDGWTPLHLAAQRGHYR [R11W] it is 2.85.
In the case of VSVNAQTLDGPTPLHLAAQRGHYR [R11P], the protein stability index amounted to 3.38.
For VSVNAQTLDGITPLHLAAQRGHYR [R11I], the protein stability index turned out to be 2.73.
For the variant VSVNAQTLDGHTPLHLAAQRGHYR [R11H], the protein stability index came out at 3.11.
Take VSVNAQTLDGCTPLHLAAQRGHYR [R11C]: the protein stability index was determined as 2.91.
With VSVNAQTLDGYTPLHLAAQRGHYR [R11Y], the protein stability index amounted to 2.98.
Consider VSVNAQTLDGKTPLHLAAQRGHYR [R11K], for which the protein stability index amounted to 3.51.
Regarding VSVNAQTLDGDTPLHLAAQRGHYR [R11D], the protein stability index is 3.31.
For the variant VSVNAQTLDGLTPLHLAAQRGHYR [R11L], the protein stability index amounted to 2.9.
The figure for VSVNAQTLDGTTPLHLAAQRGHYR [R11T] is 2.71; for VSVNAQTLDGATPLHLAAQRGHYR [R11A] it is 3.5.
For the variant VSVNAQTLDGGTPLHLAAQRGHYR [R11G], the protein stability index was found to be 2.99.
The figure for VSVNANTLDGRTPLHLAAQRGHYR [Q6N] is 3.03; for VSVNACTLDGRTPLHLAAQRGHYR [Q6C] it is 2.62.
In the case of VSVNARTLDGRTPLHLAAQRGHYR [Q6R] it was 3.02; in that of VSVNAKTLDGRTPLHLAAQRGHYR [Q6K], 3.21; in that of VSVNADTLDGRTPLHLAAQRGHYR [Q6D], 3.93.
In the case of VSVNATTLDGRTPLHLAAQRGHYR [Q6T] it was 3.44; in that of VSVNAFTLDGRTPLHLAAQRGHYR [Q6F], 2.22.
On to VSVNAETLDGRTPLHLAAQRGHYR [Q6E], for which the protein stability index was found to be 2.95.
VSVNALTLDGRTPLHLAAQRGHYR [Q6L]: the protein stability index was 3.69.
Regarding VSVNAYTLDGRTPLHLAAQRGHYR [Q6Y], the protein stability index stood at 2.59.
The figure for VSVNAHTLDGRTPLHLAAQRGHYR [Q6H] is 3.52; for VSVNAWTLDGRTPLHLAAQRGHYR [Q6W] it is 2.49.
The figure for VSVNASTLDGRTPLHLAAQRGHYR [Q6S] is 3.78; for VSVNAVTLDGRTPLHLAAQRGHYR [Q6V] it is 2.68.
In the case of VSVNAPTLDGRTPLHLAAQRGHYR [Q6P] it was 3.96; in that of VSVNAMTLDGRTPLHLAAQRGHYR [Q6M], 2.87.
With VSVNAGTLDGRTPLHLAAQRGHYR [Q6G], the protein stability index amounted to 3.13.
In the case of VSVNAITLDGRTPLHLAAQRGHYR [Q6I], the protein stability index is 2.69.
With VSVNAATLDGRTPLHLAAQRGHYR [Q6A], the protein stability index was 3.43.
With VSVNAQTLDGRCPLHLAAQRGHYR [T12C], the protein stability index was found to be 2.81.
For VSVNAQTLDGRDPLHLAAQRGHYR [T12D], the protein stability index came to 3.68.
On to VSVNAQTLDGRAPLHLAAQRGHYR [T12A], for which the protein stability index turned out to be 3.48.

The record behind these values is the supplement of paper PMC10567573.
